B1: mouse monoclonal antibody #6 (antibody)
chain 1: DAELVKPGASVKISCKASGYTFTDHSIHWVQQKPEQGLEWIGYISPGNGNIKYNEKFKGKATLTADKSSSTAYMQLNSLTSEDSAVYFCKRSLGRGGPYYFDYWGQGTTVTVSS
chain 2: DIVLTQAAPSLPVTPGESVSISCRSSKSLLHSNGNTYLYWFLQRPGQSPQLLIYRMSNLASGVPDRFSGSGSGTAFTLRISRVEAEDVGVYYCMQHREYPVTFGSGPN
B2: mouse anti-CAPRIN-1 antibody #33 (antibody)
chain 1: GPGLVKPSQSLSLTCSVTGYSITSGYYWNWIRQFPGNKLEWMGYISYDGSNNYNPSLKNRISITRDTSKNQFFLKLNSVTTEDTATYYCATGMAWFAYW
chain 2: not shown
B3: mouse monoclonal antibody #13 (antibody, V domains shown)
VH: EVQLHQFGAELVKPGASVKISCKASGYTFTDYNMDWVKQSHGKSLEWIGDINPNYDSTSYNQKFKGKATLTVDKSSSTAYMELRSLTSEDTAVYYCARSRSYDYEGFAYWGQGTLVTVSAAKTTPPSVY
VL: AVLRCSRGLLVIWISDIQLTQSPSSLAVTAGEKVTMSCKSSQSLLWSVNQKNYLSWYQQKQRQPPKLLIYGASIRESWVPDRFTGSGSGTDFTLTISNVHAEDLAVYYCQHNHGSFLPSRSEQVPSWRSNNR
notes: mouse hybridoma antibody; also called anti-CAPRIN-1 mouse monoclonal antibody #13; anti-CAPRIN-1 monoclonal antibody #13
B4: mouse anti-CAPRIN-1 antibody #31 (antibody, V domains shown)
VH: GPELVKPGASVKISCKASGYSFTGYFMNWVMQSHGKSLEWIGRINPYNGDTFYNQKFKGKATLTVDKSSSTAHMELRSLASEDSAVYYCARRIHYYYGSSYYAMDYWGQEPHH
VL: DVQITQSPSYLAASPGETITINCRASKSISKYLAWYQEKPGKTNKLLIYSGSTLQSGIPSRFSGSGSGTDFTLTISSLEPEDFAMYYCQQHNEYPWTFGGGTKLEIKR
notes: mouse hybridoma antibody; also called mouse anti-CAPRIN-1 monoclonal antibody #31
B5: mouse monoclonal antibody #14 (antibody, V domains shown)
VH: EVQLHQFGAELVKPGASVKISCKASGYTFTDYNMDWVKQSHGKSLEWIGDINPNYDSTSYNQKFKGKATLTVDKSSSTAYMELRSLTSEDTAVYYCARSRSYDYEGFAYWGQGTLVTVSA
VL: DIQLTQSPASLSASVGETVTITCRASGNIHNYLAWYQQKQGKSPQLLVYNAKTLADGVPSRFSGSGSGTQYSLKINSLQPEDFGSYYCQHFWSTLTFGGGTKLEIKQ
notes: mouse hybridoma antibody; also called anti-CAPRIN-1 mouse monoclonal antibody #14; anti-CAPRIN-1 monoclonal antibody #14
B6: mouse monoclonal antibody #15 (antibody, V domains shown)
VH: EVQLHQFGAELVKPGASVKISCKASGYTFTDYNMDWVKQSHGKSLEWIGDINPNYDSTSYNQKFKGKATLTVDKSSSTAYMELRSLTSEDTAVYYCARSRSYDYEGFAYWGQGTLVTVSA
VL: SGDRVSLSCRASQSISNYLHWYQQKSHESPRLLIKYASQSISGIPSRFSGSGSGTDFTLSINSVETEDFGMYFCQQSNSWPYTFGAGTKLEIKQ
notes: mouse hybridoma antibody; also called anti-CAPRIN-1 mouse monoclonal antibody #15; anti-CAPRIN-1 monoclonal antibody #15
B7: mouse monoclonal antibody #3 (antibody, V domains shown)
VH: GGGLVKPGGSLKLSCAASGFTFSSYGMSWVRQTPEKRLEWVATISSGGSYTYYPDSVKGRFTISRDNAKNTLYLQMSSLRSEDTAMYYCASLASYYFDYWGQGTTLTVSS
VL: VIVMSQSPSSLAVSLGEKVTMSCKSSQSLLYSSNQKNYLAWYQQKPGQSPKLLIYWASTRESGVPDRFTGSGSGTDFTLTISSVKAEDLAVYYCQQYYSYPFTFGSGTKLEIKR
B8: mouse monoclonal antibody #18 (antibody, V domains shown)
VH: LQESGAELARPGASVKLSCKASGYTFTSYWMQWVKQRPGQGLEWIGAIYPGDGDTRYTQKFKGKATLTADKSSSTAYMQLSSLASEDSAVYYCARGEYGNYFAYWGQGTTVTVSS
VL: TSDASLGERVTITCKASQDINSYLSWFQQKPGKSPKTLIYRANRLVDGVPSRFSGSGSGQDYSLTISSLEYEDMGIYYCLQYDEFPLTFGGGTKLEIKQ
notes: mouse hybridoma antibody; also called anti-CAPRIN-1 mouse monoclonal antibody #18; anti-CAPRIN-1 monoclonal antibody #18
B9: humanized anti-CAPRIN-1 antibody #2 (antibody, human IgG1, V domains shown)
VH: EVQLVESGGGLVQPGGSLRLSCAASGFSFSGSYYMSWVRQAPGKGLEWIAYIYIGDGVTAYANWAKGRFTISKDNSKNTLYLQMNSLRAEDTAVYFCARGNKLWGPGTLVTVSS
VL: DIQMTQSPSSLSASVGDRVTIKCQASQSISSYLAWYQQKPGKAPKRLIYDASNLDSGVPSRFSGSGSGTDFTFTISSLQPEDIATYYCQCTAVSSATIYGNAFGGGTKVEIK
B10: humanized anti-CAPRIN-1 antibody #1 (antibody, human IgG1, V domains shown)
VH: QVQLVESGGGLVKPGGSLRLSCAASGFSFSGSYYMSWVRQAPGKGLEWIAYIYIGDGVTAYANWAKGRFTISRDNAKNSLYLQMNSLRAEDTAVYFCARGNRLWGQGTLVTVSS
VL: DIQMTQSPSSLSAAVGDRVTIKCQASQSISSYLAWYQQKPGKPPKRLIYDASNLDSGVPSRFSGSGSGTDFTFTISSLQPEDIATYYCQCTAVSSATIYGNAFGGGTKVEIK

Experiments:
[1] = molecular target: T1, CAPRIN-1 protein expressed on the cell surface of human cancer cells (human, UniProt Q14444 2-709); test: cell-based or functional assay
T1 sequence (looked up): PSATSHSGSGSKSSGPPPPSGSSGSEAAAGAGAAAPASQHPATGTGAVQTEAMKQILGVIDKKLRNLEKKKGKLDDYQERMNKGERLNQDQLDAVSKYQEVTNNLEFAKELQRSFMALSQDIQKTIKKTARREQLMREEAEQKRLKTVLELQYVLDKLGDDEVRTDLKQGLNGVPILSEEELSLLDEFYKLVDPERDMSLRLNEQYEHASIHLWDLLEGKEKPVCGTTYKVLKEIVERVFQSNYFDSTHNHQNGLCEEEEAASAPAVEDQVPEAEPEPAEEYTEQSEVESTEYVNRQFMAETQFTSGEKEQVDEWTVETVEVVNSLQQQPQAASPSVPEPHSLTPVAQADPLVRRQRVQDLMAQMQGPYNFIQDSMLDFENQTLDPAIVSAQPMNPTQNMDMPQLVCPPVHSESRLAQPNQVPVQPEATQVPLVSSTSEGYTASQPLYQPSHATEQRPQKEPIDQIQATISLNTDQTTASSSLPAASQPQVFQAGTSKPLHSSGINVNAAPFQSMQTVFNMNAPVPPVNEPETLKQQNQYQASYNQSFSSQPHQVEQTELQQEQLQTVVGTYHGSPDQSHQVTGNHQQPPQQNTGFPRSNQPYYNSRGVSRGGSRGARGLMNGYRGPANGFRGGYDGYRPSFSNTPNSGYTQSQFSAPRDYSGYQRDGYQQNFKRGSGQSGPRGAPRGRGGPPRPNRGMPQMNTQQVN

[2] = molecular target: T1, CAPRIN-1 protein expressed on the cell …; test: flow cytometry, TGBC14TKB cells, culture supernatant, isotype control antibody as control
Protocol: Subsequently, a gallbladder cell line TGBC14TKB, which was confirmed to express a CAPRIN-1 gene, was investigated for whether or not a CAPRIN-1 protein is expressed on the surfaces of these cells. 1×10⁶ cells of TGBC14TKB were centrifuged with a 1.5-mL micro centrifugation tube. To the cells was added the culture supernatant (100 μL) containing any of anti-CAPRIN-1 mouse monoclonal antibodies #1 to #22 reacting to cancer cell surface produced in Example 4 and anti-CAPRIN-1 mouse-chicken chimeric antibodies #1 to #3 produced in the above (2), followed by being left to stand on ice for 1 hour. After washing with PBS, the cells were suspended in a FITC-labeled goat anti-mouse IgG antibody (manufactured by life technologies) diluted by 500-fold with PBS containing 0.1% FBS, followed by being left to stand on ice for 1 hour. After washing with PBS, the fluorescence intensity was measured with FACS Calibur available from Becton, Dickinson and Company. Separately, as a control, the same procedure as in above was performed using an iso-type control antibody, instead of the culture supernatants containing the anti-CAPRIN-1 mouse monoclonal antibodies #1 to #22 and the mouse-chicken chimeric antibodies #1 to #3. As a result, the fluorescence intensity in the cells to which any of the monoclonal antibodies #1 to #22 and the mouse-chicken chimeric antibodies #1 to #3 was added was 20% or more higher than that in the control in every case. Specifically, in the case of using mouse-chicken chimeric antibody #1, the fluorescence intensity was enhanced by 200% or more. […] The rate of increase in the fluorescence intensity is represented by the rate of increase in the mean fluorescence intensity (MFI value) in each cell and is calculated by the following calculation formula: […]

[3] = molecular target: T1, CAPRIN-1 protein expressed on the cell …; test: flow cytometry, TGBC14TKB cells, antibody 20 ug/mL, secondary antibody only as control
Protocol: (§1) A human gallbladder cancer cell line TGBC14TKB was investigated whether or not a CAPRIN-1 protein is expressed on the cell surface. 5×10⁵ cells of the gallbladder cancer cell line were centrifuged with a 1.5-mL micro centrifugation tube. The cells were subjected to reaction with each mouse anti-CAPRIN-1 antibody at a final concentration of 20 μg/mL, followed by being left to stand on ice for 1 hour. After washing with PBS, the cells were reacted with a 100-fold diluted Alexa488-labeled goat anti-mouse IgG antibody (manufactured by life technologies), followed by being left to stand on ice for […]. After washing with PBS, the fluorescence intensity was measured with FACS Calibur available from Becton, Dickinson and Company. As a negative control, only the secondary antibody was used in the reaction.
as §1, with “cell surface using mouse anti-CAPRIN-1 monoclonal antibodies #30 to #36.” for “cell surface.”, “of TGBC14TKB” for “of the gallbladder cancer cell line”, “each of” for “each”, “anti-CAPRIN-1 antibodies #30 to #36” for “anti-CAPRIN-1 antibody”, “Company. Separately, the cells were subjected to reaction with” for “Company. As a negative control,”, “antibody as a negative control.” for “antibody was used in the reaction.”

[4] = molecular target: T2, human CAPRIN-1 recombinant protein (human, UniProt Q14444 1-709); test: reactivity with CAPRIN-1 protein, method not detailed
T2 construct: also called CAPRIN-1 protein; antigen protein (human CAPRIN-1 protein)
T2 sequence: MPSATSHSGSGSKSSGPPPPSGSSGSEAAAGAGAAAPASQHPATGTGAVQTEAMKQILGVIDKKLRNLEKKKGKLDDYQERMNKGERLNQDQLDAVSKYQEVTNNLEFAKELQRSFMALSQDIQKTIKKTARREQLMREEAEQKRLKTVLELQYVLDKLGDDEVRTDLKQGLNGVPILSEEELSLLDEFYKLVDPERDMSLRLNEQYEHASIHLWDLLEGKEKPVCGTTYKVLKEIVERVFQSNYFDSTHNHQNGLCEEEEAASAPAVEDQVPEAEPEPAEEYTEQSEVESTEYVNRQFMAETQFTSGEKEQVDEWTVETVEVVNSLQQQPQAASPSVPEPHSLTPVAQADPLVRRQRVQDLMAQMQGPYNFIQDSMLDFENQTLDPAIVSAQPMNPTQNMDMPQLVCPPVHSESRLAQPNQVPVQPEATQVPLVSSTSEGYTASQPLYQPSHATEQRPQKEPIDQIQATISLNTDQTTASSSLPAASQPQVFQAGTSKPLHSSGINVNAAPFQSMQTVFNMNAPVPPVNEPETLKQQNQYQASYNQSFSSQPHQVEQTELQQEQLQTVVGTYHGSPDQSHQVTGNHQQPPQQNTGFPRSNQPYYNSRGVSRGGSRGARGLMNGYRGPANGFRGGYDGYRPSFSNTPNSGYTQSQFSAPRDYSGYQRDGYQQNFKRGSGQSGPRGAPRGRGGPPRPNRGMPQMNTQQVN

[5] = molecular target: T3, polypeptide set forth in SEQ ID NO: 430 (human); test: reactivity with the epitope peptide, method not detailed
T3 peptide: ATQVPLVSSTSEGYTA

[6] = molecular target: T1, CAPRIN-1 protein expressed on the cell …; test: reactivity with gallbladder cancer cell lines, method not detailed

| Binder | cytotoxicity (ADCC, 51Cr release) on TGBC14TKB, human NK cells [1] [%] | rate of increase in mean fluorescence intensity over control [2] [%] | further results |
| --- | --- | --- | --- |
| B1 | ≥ 15 | ≥ 20 |  |
| B2 |  |  | increase in fluorescence intensity over control [3]: ≥ 35% |
| B3 | ≥ 15 | ≥ 20 |  |
| B4 |  |  | increase in fluorescence intensity over control [3]: ≥ 35% |
| B5 | ≥ 15 | ≥ 20 |  |
| B6 | ≥ 15 | ≥ 20 |  |
| B7 | ≥ 15 | ≥ 20 |  |
| B8 | ≥ 15 | ≥ 20 |  |
| B9 |  |  | binding result [4]: binds; binding result [5]: binds; binding result [6]: binds |
| B10 |  |  | binding result [4]: binds; binding result [5]: binds; binding result [6]: binds |
